Laboratory results as given in patent publication US20050089970A1.

biological target: CCR5 (UniProt P51681); test: cell-based or functional assay
Sequence of UniProt P51681 (P51681 whole entry): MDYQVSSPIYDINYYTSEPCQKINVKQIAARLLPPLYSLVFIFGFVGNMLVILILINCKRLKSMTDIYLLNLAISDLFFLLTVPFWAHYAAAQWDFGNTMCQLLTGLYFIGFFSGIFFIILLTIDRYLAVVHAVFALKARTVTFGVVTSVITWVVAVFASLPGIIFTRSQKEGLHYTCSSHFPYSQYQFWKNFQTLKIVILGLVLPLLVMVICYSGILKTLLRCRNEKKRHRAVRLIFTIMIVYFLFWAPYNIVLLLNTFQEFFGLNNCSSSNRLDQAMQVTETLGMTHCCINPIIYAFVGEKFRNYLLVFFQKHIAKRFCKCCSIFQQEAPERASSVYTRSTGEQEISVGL

Substance | Mean Relative Potency (IC50 of cell fusion inhibition relative to AOP-RANTES = 100) (relative to AOP-RANTES = 100) | percentage fusion inhibition at the lowest dilution [%] | Average infectivity IC50 (cell-free viral infection assay) [nM] | Cell-fusion result for comparison (IC50) [nM] | EC50, HeLa P4-CCR5/HeLa-Env-ADA cell fusion [nM]
NNY-P2Thz-Y3tButA-RANTES (4-68) (from UniProt P13501 25-91) (ligand) | 4 | > 50 |  |  | 
NNY-P-Y3tbuA-RANTES (4-68) (from UniProt P13501 25-91) (ligand) | 7 | > 50 | 0.014 | 0.038 | 
n-nonanoyl-RANTES (2-68), CH3-(CH2)7-C(O)-RANTES (2-68) (from UniProt P13501 25-91) (ligand) |  |  | 0.024 | 0.097 | 0.323
NNY-P-Y3Chg-RANTES (4-68) (from UniProt P13501 25-91) (ligand) | 7 | > 50 | 0.012 | 0.026 | 
AOP-RANTES-K(palmitoyl)-G (from UniProt P13501 25-91) (ligand) | 45 |  |  |  | 
NNY-P2Thz-Y3Chg-RANTES (4-68) (from UniProt P13501 25-91) (ligand) | 2 | > 50 |  |  | 
aminooxypentane-RANTES (2-68), CH3-(CH2)4-O-N=CH-CO-RANTES (2-68) (from UniProt P13501 25-91) (ligand) | 100 |  | 0.145 | 0.48 | 1.81
